Source: IntAct's records for PubMed 23039992

B1: Tumor necrosis factor receptor superfamily member 11B (Mus musculus), O08712 (parent)
chain: MNKWLCCALLVLLDIIEWTTQETLPPKYLHYDPETGHQLLCDKCAPGTYLKQHCTVRRKTLCVPCPDHSYTDSWHTSDECVYCSPVCKELQSVKQECNRTHNRVCECEEGRYLEIEFCLKHRSCPPGSGVVQAGTPERNTVCKKCPDGFFSGETSSKAPCIKHTNCSTFGLLLIQKGNATHDNVCSGNREATQKCGIDVTLCEEAFFRFAVPTKIIPNWLSVLVDSLPGTKVNAESVERIKRRHSSQEQTFQLLKLWKHQNRDQEMVKKIIQDIDLCESSVQRHLGHSNLTTEQLLALMESLPGKKISPEEIERTRKTCKSSEQLLKLLSLWRIKNGDQDTLKGLMYALKHLKTSHFPKTVTHSLRKTMRFLHSFTMYRLYQKLFLEMIGNQVQSVKISCL

Variants of: B1
Settings: with Tnfsf11, O35235-1
Tnfsf11, O35235-1, sequence (O35235 whole entry): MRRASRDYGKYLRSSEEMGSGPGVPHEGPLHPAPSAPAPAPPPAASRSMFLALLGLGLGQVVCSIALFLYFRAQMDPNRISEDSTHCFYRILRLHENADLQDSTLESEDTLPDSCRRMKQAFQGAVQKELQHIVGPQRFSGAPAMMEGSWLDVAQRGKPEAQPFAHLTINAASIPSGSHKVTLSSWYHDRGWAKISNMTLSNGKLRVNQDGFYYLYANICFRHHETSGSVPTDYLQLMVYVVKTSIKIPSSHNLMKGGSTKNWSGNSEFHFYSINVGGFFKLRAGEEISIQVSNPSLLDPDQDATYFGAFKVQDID

effect of a mutation on the interaction | Variant
increasing interaction strength | F117L

Variants of: B1
Settings: with Tnfsf11, O35235-1
Remark: another data set of the same source

effect of a mutation on the interaction | Variant
increasing interaction strength | F117A
